In general, Km refers to the concentration of substrate that gives half-maximal velocity. As usually defined, the kcat is the number of substrate molecules converted per active site and unit of time at saturation. As usually defined, the kcat/Km is the turnover number divided by the Michaelis constant.

In article PMC4216079, “Phenotypic and Enzymatic Comparative Analysis of the KPC Variants, KPC-2 and Its Recently Discovered Variant KPC-15” (PLoS ONE, 2014) one finds Km, kcat and kcat/Km data, which are given here for two compounds.

In one data set the target is KPC-2 (Klebsiella pneumoniae, UniProt Q9F663). Briefly: steady-state hydrolysis, diode array spectrophotometer. As to conditions: 10 mM PBS, pH 7.4, 25°C; 10 nM enzyme.
Data set [1] has as its system CC(C)(O/N=C(\C(=O)N[C@@H]1C(=O)N2C(C(=O)[O-])=C(C[n+]3ccccc3)CS[C@H]12)c1csc(N)n1)C(=O)O. Briefly: purified protein. The following applies: 10 mM PBS, pH 7.4, 25°C, 10 nM enzyme.
Data set [2] has as its system C[C@@H](O)[C@H]1C(=O)N2C(C(=O)O)=C(S[C@@H]3CN[C@H](C(=O)N(C)C)C3)[C@H](C)[C@H]12. Nature of the data set: purified protein. As to conditions: 10 mM PBS, pH 7.4, 25°C, 10 nM enzyme.
Data set [3] concerns CO/N=C(\C(=O)N[C@@H]1C(=O)N2C(C(=O)O)=C(COC(C)=O)CS[C@H]12)c1csc(N)n1. Briefly: purified protein. The following applies: 10 mM PBS, pH 7.4, 25°C, 10 nM enzyme.
Data set [4] deals with Cc1nnc(SCC2=C(C(=O)O)N3C(=O)[C@@H](NC(=O)Cn4cnnn4)[C@H]3SC2)s1. Nature of the data set: purified protein. The following applies: 10 mM PBS, pH 7.4, 25°C, 10 nM enzyme.
In data set [5] the test system is C[C@@H](O)[C@H]1C(=O)N2C(C(=O)O)=C(SCCN=CN)C[C@H]12. Briefly: purified protein. The following applies: 10 mM PBS, pH 7.4, 25°C, 10 nM enzyme.

Take `O=C(Cc1cccs1)N[C@@H]1C(=O)N2C(C(=O)O)=C(/C=C/c3ccc([N+](=O)[O-])cc3[N+](=O)[O-])CS[C@H]12` [nitrocefin]: on KPC-2, the Km came out at 6.5 ± 2.4 µM.

For the compound KPC-2 (Klebsiella pneumoniae), the Km in data set [1] amounted to 217 ± 6 µM; in data set [2] it was 16.2 ± 3.1 µM; in data set [3] it was 124 ± 6 µM; in data set [4], 16 ± 1 µM; in data set [5], 21 ± 2 µM. For the same compound, the kcat in data set [1] is 0.59 ± 0.83 s⁻¹; in data set [2] it was 4.1 ± 0.99 s⁻¹; in data set [3], 52 ± 6 s⁻¹; in data set [4] it was 44 ± 2 s⁻¹; in data set [5] it was 20 ± 1 s⁻¹. Besides, the kcat/Km in data set [1] is 2700 ± 560 M⁻¹ s⁻¹; in data set [2], 250000 ± 61000 M⁻¹ s⁻¹; in data set [4], 2.8e+06 ± 1e+06 M⁻¹ s⁻¹; in data set [5], 950000 ± 650000 M⁻¹ s⁻¹.
